US10766960 (dated 2020)
Substitutions are numbered along the chain they refer to.

T1: FcgRIa (human, UniProt P12314)
T1 chain: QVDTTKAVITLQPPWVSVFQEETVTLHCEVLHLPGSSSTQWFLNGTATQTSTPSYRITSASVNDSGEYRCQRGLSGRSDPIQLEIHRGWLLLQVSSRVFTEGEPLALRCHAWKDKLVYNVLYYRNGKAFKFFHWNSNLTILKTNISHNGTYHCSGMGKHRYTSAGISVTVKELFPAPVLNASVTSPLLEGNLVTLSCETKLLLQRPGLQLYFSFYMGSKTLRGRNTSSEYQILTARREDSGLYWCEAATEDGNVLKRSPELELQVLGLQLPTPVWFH

T2: FcgRIIa R (human, UniProt P12318)
T2 chain: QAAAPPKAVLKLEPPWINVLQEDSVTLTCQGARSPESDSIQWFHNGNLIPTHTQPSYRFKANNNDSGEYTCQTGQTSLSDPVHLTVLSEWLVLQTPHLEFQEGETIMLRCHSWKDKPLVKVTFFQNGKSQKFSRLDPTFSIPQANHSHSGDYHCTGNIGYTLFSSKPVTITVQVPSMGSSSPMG

T3: FcgRIIa H (human, UniProt P12318)
T3 chain: T2 chain with R134H

T4: FcgRIIb (human, UniProt P31994)
T4 chain: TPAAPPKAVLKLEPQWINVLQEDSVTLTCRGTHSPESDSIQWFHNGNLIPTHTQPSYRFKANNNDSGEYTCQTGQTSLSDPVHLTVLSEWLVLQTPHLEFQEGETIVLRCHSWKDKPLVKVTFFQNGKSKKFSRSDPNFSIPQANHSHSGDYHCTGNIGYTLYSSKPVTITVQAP

B1: H240-Kn201/H240-Hl214/L73-k0 (antibody)
chain 1: QDQLVQSGAEVKKPGASVKVSCKASGFNIKDTYIQWVRQAPGQGLEWMGRIDPLRKQTKYREKFEGRVTITADTSTNTAYMELSSLRSEDTAVYYCVRSGREFDYWGQGTLVTVSSASTKGPSVFPLAPSSKSTSGGTAALGCLVKDYFPEPVTVSWNSGALTSGVHTFPAVLQSSGLYSLSSVVTVPSSSLGTQTYICNVNHKPSNTKVDKKVEPKSCDKTHTCPPCPAPEFQWGPMVFLFPPKPKDTLMISRTPEVTCVVVDVSDEEPEVKFNWYVDGVEVHNAKTKPREEQYNATYRVVSVLTVLHQDWLNGKEYKCKVSNKALPAPIEKTISKAKGQPREPQVCTLPPSRDELTKNQVSLWCLVKGFYPSDIAVEWESNGQPENNYKTTPPVLDSDGSFFLYSKLTVDKSRWQQGNVFSCSVMHEALHNHYTQKSLSLSP
chain 2: QDQLVQSGAEVKKPGASVKVSCKASGFNIKDTYIQWVRQAPGQGLEWMGRIDPLRKQTKYREKFEGRVTITADTSTNTAYMELSSLRSEDTAVYYCVRSGREFDYWGQGTLVTVSSASTKGPSVFPLAPSSKSTSGGTAALGCLVKDYFPEPVTVSWNSGALTSGVHTFPAVLQSSGLYSLSSVVTVPSSSLGTQTYICNVNHKPSNTKVDKKVEPKSCDKTHTCPPCPAPELLGGPSVFLFPPKPKDTLMISRTPEVTCVVVDVSHEEPEVKFNWYVDGVEVHNAKTKPREEQYNSTYRVVSVLTVLHQDWLNGKEYKCKVSNDALPFPIEETISKAKGQPREPQVYTLPPSRCELTKNQVSLSCAVKGFYPSDIAVEWESNGQPENNYKTTPPVLDSDGSFFLVSKLTVDKSRWQQGNVFSCSVMHEALHNHYTQKSLSLSP
chain 3: DIQMTQSPSSLSASVGDRVTITCRASQDIHKYIAWYQQKPGQAPRLLIQYTSTLQPGVPSRFSGSGSGTDYTFTISSLQPEDIATYYCLQYEQLRTFGGGTKVEIKRTVAAPSVFIFPPSDEQLKSGTASVVCLLNNFYPREAKVQWKVDNALQSGNSQESVTEQDSKDSTYSLSSTLTLSKADYEKHKVYACEVTHQGLSSPVTKSFNRGEC
B2: H240-Kn202/H240-Hl068/L73-k0 (antibody)
chain 1: B1 chain 1 with F233E
chain 2: B1 chain 2 with F329K
chain 3: B1 chain 3
B3: H240-Kn235/H240-Hl068/L73-k0 (antibody)
chain 1: B1 chain 1 with Q234Y, M238I, E269D, A326D
chain 2: B1 chain 2 with F329K
chain 3: B1 chain 3
B4: H240-Kn203/H240-Hl210/L73-k0 (antibody)
chain 1: B1 chain 1 with Q234Y, E269D, A326D
chain 2: B1 chain 2 with F329A
chain 3: B1 chain 3
B5: H240-Kn200/H240-Hl068/L73-k0 (antibody)
chain 1: B1 chain 1 with F233S
chain 2: B1 chain 2 with F329K
chain 3: B1 chain 3
B6: H240-Kn231/H240-Hl068/L73-k0 (antibody)
chain 1: B1 chain 1 with F233I, Q234Y, M238I, E269D, A326D
chain 2: B1 chain 2 with F329K
chain 3: B1 chain 3
B7: H240-Kn226/H240-Hl210/L73-k0 (antibody)
chain 1: B1 chain 1 with M238I
chain 2: B1 chain 2 with F329A
chain 3: B1 chain 3
B8: H240-Kn200/H240-Hl210/L73-k0 (antibody)
chain 1: B1 chain 1 with F233S
chain 2: B1 chain 2 with F329A
chain 3: B1 chain 3
B9: H240-Kn198/H240-Hl210/L73-k0 (antibody)
chain 1: B1 chain 1 with F233L
chain 2: B1 chain 2 with F329A
chain 3: B1 chain 3
B10: H240-Kn202/H240-Hl210/L73-k0 (antibody)
chain 1: B1 chain 1 with F233E
chain 2: B1 chain 2 with F329A
chain 3: B1 chain 3
B11: H240-Kn228/H240-Hl210/L73-k0 (antibody)
chain 1: B1 chain 1 with F233D, M238I
chain 2: B1 chain 2 with F329A
chain 3: B1 chain 3
B12: H240-Kn228/H240-Hl214/L73-k0 (antibody)
chain 1: B1 chain 1 with F233D, M238I
chain 2: B1 chain 2
chain 3: B1 chain 3
B13: H240-Kn230/H240-Hl068/L73-k0 (antibody)
chain 1: B1 chain 1 with F233V, Q234Y, M238I, E269D, A326D
chain 2: B1 chain 2 with F329K
chain 3: B1 chain 3
B14: H240-Kn233/H240-Hl068/L73-k0 (antibody)
chain 1: B1 chain 1 with F233E, Q234Y, M238I, E269D, A326D
chain 2: B1 chain 2 with F329K
chain 3: B1 chain 3
B15: H240-Kn201/H240-Hl068/L73-k0 (antibody)
chain 1: B1 chain 1
chain 2: B1 chain 2 with F329K
chain 3: B1 chain 3
B16: H240-Kn232/H240-Hl068/L73-k0 (antibody)
chain 1: B1 chain 1 with F233L, Q234Y, M238I, E269D, A326D
chain 2: B1 chain 2 with F329K
chain 3: B1 chain 3
B17: H240-Kn201/H240-Hl210/L73-k0 (antibody)
chain 1: B1 chain 1
chain 2: B1 chain 2 with F329A
chain 3: B1 chain 3
B18: H240-Kn226/H240-Hl214/L73-k0 (antibody)
chain 1: B1 chain 1 with M238I
chain 2: B1 chain 2
chain 3: B1 chain 3
B19: H240-Kn208/H240-Hl214/L73-k0 (antibody)
chain 1: B1 chain 1 with F233D
chain 2: B1 chain 2
chain 3: B1 chain 3

Biological target: T1, FcgRIa
Assay: SPR
With B1 the Kd was 0.091 nM. Binder B2 has a Kd of 0.4 nM. Work on B3 yielded a Kd of 0.15 nM. B4 showed a Kd of 0.16 nM. Work on B5 yielded a Kd of 0.5 nM. B6 was tested, and the Kd was 0.18 nM. B7 was tested, and the Kd was 0.11 nM. B8 gave a Kd of 0.18 nM. B9 was tested, and the Kd was 0.047 nM. B10 was tested, and the Kd was 0.17 nM. B11 was tested, and the Kd was 0.16 nM. B12 showed a Kd of 0.12 nM. With B13 the Kd was 0.18 nM. In the case of B14, the Kd is reported as 0.18 nM. B15 gave a Kd of 0.26 nM. Binder B16 has a Kd of 0.23 nM. B17 gave a Kd of 0.069 nM. With B18 the Kd was 0.089 nM. In the case of B19, the Kd is reported as 0.053 nM.

Biological target: T2, FcgRIIa R
Assay: SPR
In the case of B1, the Kd is reported as 560 nM. Work on B2 yielded a Kd of 200 nM. B3 was tested, and the Kd was 23 nM. With B4 the Kd was 56 nM. Binder B5 has a Kd of 280 nM. B6 showed a Kd of 8.9 nM. With B7 the Kd was 310 nM. With B8 the Kd was 480 nM. In the case of B9, the Kd is reported as 480 nM. In the case of B10, the Kd is reported as 320 nM. In the case of B11, the Kd is reported as 200 nM. B12 was tested, and the Kd was 320 nM. Work on B13 yielded a Kd of 9.6 nM. Work on B14 yielded a Kd of 21 nM. In the case of B15, the Kd is reported as 360 nM. In the case of B16, the Kd is reported as 17 nM. B17 was tested, and the Kd was 430 nM. Work on B18 yielded a Kd of 360 nM. Binder B19 has a Kd of 720 nM.

These binders were tested against FcgRIIIa V (human, UniProt P08637) (assay: SPR).
Sequence of FcgRIIIa V (P08637 17-208 F176V): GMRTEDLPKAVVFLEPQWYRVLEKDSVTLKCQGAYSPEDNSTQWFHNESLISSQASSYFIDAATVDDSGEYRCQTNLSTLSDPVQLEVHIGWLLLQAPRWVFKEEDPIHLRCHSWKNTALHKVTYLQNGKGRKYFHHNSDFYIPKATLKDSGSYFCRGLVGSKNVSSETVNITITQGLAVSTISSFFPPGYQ
Work on B1 yielded a Kd of 1.4 nM. In the case of B2, the Kd is reported as 0.66 nM. Binder B3 has a Kd of 0.87 nM. B4 showed a Kd of 0.45 nM. Binder B5 has a Kd of 1.2 nM. B6 showed a Kd of 0.73 nM. Binder B7 has a Kd of 0.85 nM. With B8 the Kd was 1.2 nM. B9 gave a Kd of 1 nM. Work on B10 yielded a Kd of 0.53 nM. Work on B11 yielded a Kd of 0.81 nM. Work on B12 yielded a Kd of 0.77 nM. With B13 the Kd was 0.93 nM. For B14, the Kd was 0.75 nM. B15 was tested, and the Kd was 1.2 nM. Binder B16 has a Kd of 0.86 nM. In the case of B17, the Kd is reported as 0.49 nM. B18 gave a Kd of 0.77 nM. B19 showed a Kd of 0.9 nM.

Biological target: T3, FcgRIIa H
Assay: SPR
Binder B1 has a Kd of 150 nM. B2 was tested, and the Kd was 120 nM. B3 gave a Kd of 37 nM. B4 gave a Kd of 93 nM. B5 gave a Kd of 69 nM. With B6 the Kd was 16 nM. B7 gave a Kd of 120 nM. B8 was tested, and the Kd was 170 nM. With B9 the Kd was 120 nM. For B10, the Kd was 230 nM. Binder B11 has a Kd of 190 nM. In the case of B12, the Kd is reported as 270 nM. B13 was tested, and the Kd was 22 nM. B14 was tested, and the Kd was 66 nM. B15 showed a Kd of 56 nM. With B16 the Kd was 25 nM. In the case of B17, the Kd is reported as 110 nM. B18 gave a Kd of 160 nM. B19 showed a Kd of 420 nM.

These binders were tested against FcgRIIIa F (human, UniProt P08637) (assay: SPR).
Sequence of FcgRIIIa F (P08637 17-208): as the sequence (P08637 17-208 F176V) above, with V160F counted along it
For B1, the Kd was 3.9 nM. With B2 the Kd was 2.5 nM. B3 showed a Kd of 2.7 nM. B4 showed a Kd of 3 nM. B5 gave a Kd of 4.6 nM. Work on B6 yielded a Kd of 2.9 nM. Binder B7 has a Kd of 3.7 nM. In the case of B8, the Kd is reported as 5.7 nM. For B9, the Kd was 4.9 nM. With B10 the Kd was 3.3 nM. For B11, the Kd was 4.4 nM. With B12 the Kd was 1.9 nM. B13 was tested, and the Kd was 2.6 nM. B14 showed a Kd of 2.5 nM. Binder B15 has a Kd of 5.3 nM. Work on B16 yielded a Kd of 3 nM. With B17 the Kd was 3.2 nM. For B18, the Kd was 1.9 nM. For B19, the Kd was 3 nM.

Biological target: T4, FcgRIIb
Assay: SPR
B1 gave a Kd of 3700 nM. Binder B2 has a Kd of 1400 nM. B3 gave a Kd of 220 nM. B4 gave a Kd of 300 nM. Binder B5 has a Kd of 2800 nM. B6 showed a Kd of 120 nM. B7 was tested, and the Kd was 3100 nM. Binder B8 has a Kd of 2600 nM. Binder B9 has a Kd of 3100 nM. For B10, the Kd was 2200 nM. B11 showed a Kd of 1700 nM. B12 gave a Kd of 2300 nM. In the case of B13, the Kd is reported as 150 nM. Binder B14 has a Kd of 210 nM. In the case of B15, the Kd is reported as 3900 nM. In the case of B16, the Kd is reported as 190 nM. B17 showed a Kd of 7200 nM. In the case of B18, the Kd is reported as 3400 nM. For B19, the Kd was 4500 nM.
